Measurements: patent US20260015399A1 (Boehringer Ingelheim, published 2026)
*1 amine or outer side, *2 acyl side, *3 side chain or, on linkers, in order; H or OH if unused. Side-chain parts run from the residue outwards. The star is where a group is joined. C18 diacid = O=C(O)CCCCCCCCCCCCCCCCC(=O)*; γGlu = O=C(O)[C@H](CCC(=O)[*:2])N[*:1]; Isovaleryl = CC(C)CC(=O)*; Ahx = NCCCCCC(=O)O

T1: human NPY2 receptor (human, UniProt P49146 1-381)
T1 construct: whole, on cells; also called hNPY2-R; hNPY2R
T1 sequence (looked up): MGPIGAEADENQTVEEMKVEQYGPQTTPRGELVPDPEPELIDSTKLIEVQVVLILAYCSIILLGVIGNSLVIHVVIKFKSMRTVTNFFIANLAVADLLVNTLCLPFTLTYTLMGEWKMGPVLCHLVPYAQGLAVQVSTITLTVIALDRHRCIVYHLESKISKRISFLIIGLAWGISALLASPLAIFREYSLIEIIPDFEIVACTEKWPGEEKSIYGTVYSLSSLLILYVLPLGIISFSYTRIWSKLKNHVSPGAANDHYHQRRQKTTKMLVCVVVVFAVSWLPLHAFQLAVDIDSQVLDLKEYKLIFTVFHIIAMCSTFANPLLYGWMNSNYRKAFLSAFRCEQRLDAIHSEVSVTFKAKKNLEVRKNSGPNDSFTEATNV

T2: human NPY5 receptor (human, UniProt Q15761 1-445)
T2 sequence (looked up): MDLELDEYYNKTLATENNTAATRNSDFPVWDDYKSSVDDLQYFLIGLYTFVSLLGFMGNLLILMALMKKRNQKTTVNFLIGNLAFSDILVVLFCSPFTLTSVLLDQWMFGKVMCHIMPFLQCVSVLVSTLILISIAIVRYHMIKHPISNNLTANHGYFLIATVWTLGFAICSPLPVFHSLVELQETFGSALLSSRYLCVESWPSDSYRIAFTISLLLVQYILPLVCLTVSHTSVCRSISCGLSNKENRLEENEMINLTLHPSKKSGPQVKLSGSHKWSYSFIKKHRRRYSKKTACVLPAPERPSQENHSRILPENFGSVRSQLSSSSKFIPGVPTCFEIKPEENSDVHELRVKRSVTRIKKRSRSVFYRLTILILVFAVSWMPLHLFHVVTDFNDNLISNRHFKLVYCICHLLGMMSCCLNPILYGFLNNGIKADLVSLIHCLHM

B1: Compound 14 (peptide)
peptide: Isovaleryl-APEK([Ahx-γGlu-C18 diacid])PPEDASPEELQRYYVSLRHYYNWLTRQRY-NH2
SMILES: CC(C)CC(=O)N[C@@H](C)C(=O)N1CCC[C@H]1C(=O)N[C@@H](CCC(=O)O)C(=O)N[C@@H](CCCCNC(=O)CCCCCNC(=O)CC[C@H](NC(=O)CCCCCCCCCCCCCCCCC(=O)O)C(=O)O)C(=O)N1CCC[C@H]1C(=O)N1CCC[C@H]1C(=O)N[C@@H](CCC(=O)O)C(=O)N[C@@H](CC(=O)O)C(=O)N[C@@H](C)C(=O)N[C@@H](CO)C(=O)N1CCC[C@H]1C(=O)N[C@@H](CCC(=O)O)C(=O)N[C@@H](CCC(=O)O)C(=O)N[C@@H](CC(C)C)C(=O)N[C@@H](CCC(N)=O)C(=O)N[C@@H](CCCNC(=N)N)C(=O)N[C@@H](Cc1ccc(O)cc1)C(=O)N[C@@H](Cc1ccc(O)cc1)C(=O)N[C@H](C(=O)N[C@@H](CO)C(=O)N[C@@H](CC(C)C)C(=O)N[C@@H](CCCNC(=N)N)C(=O)N[C@@H](Cc1c[nH]cn1)C(=O)N[C@@H](Cc1ccc(O)cc1)C(=O)N[C@@H](Cc1ccc(O)cc1)C(=O)N[C@@H](CC(N)=O)C(=O)N[C@@H](Cc1c[nH]c2ccccc12)C(=O)N[C@@H](CC(C)C)C(=O)N[C@H](C(=O)N[C@@H](CCCNC(=N)N)C(=O)N[C@@H](CCC(N)=O)C(=O)N[C@@H](CCCNC(=N)N)C(=O)N[C@@H](Cc1ccc(O)cc1)C(N)=O)[C@@H](C)O)C(C)C
B2: Compound 15 (peptide)
peptide: Isovaleryl-APEK([Ahx-γGlu-C18 diacid])PEEDASPEEIQQYYVSLRHYYNWLTRQRY-NH2
SMILES: CC[C@H](C)[C@H](NC(=O)[C@H](CCC(=O)O)NC(=O)[C@H](CCC(=O)O)NC(=O)[C@@H]1CCCN1C(=O)[C@H](CO)NC(=O)[C@H](C)NC(=O)[C@H](CC(=O)O)NC(=O)[C@H](CCC(=O)O)NC(=O)[C@H](CCC(=O)O)NC(=O)[C@@H]1CCCN1C(=O)[C@H](CCCCNC(=O)CCCCCNC(=O)CC[C@H](NC(=O)CCCCCCCCCCCCCCCCC(=O)O)C(=O)O)NC(=O)[C@H](CCC(=O)O)NC(=O)[C@@H]1CCCN1C(=O)[C@H](C)NC(=O)CC(C)C)C(=O)N[C@@H](CCC(N)=O)C(=O)N[C@@H](CCC(N)=O)C(=O)N[C@@H](Cc1ccc(O)cc1)C(=O)N[C@@H](Cc1ccc(O)cc1)C(=O)N[C@H](C(=O)N[C@@H](CO)C(=O)N[C@@H](CC(C)C)C(=O)N[C@@H](CCCNC(=N)N)C(=O)N[C@@H](Cc1c[nH]cn1)C(=O)N[C@@H](Cc1ccc(O)cc1)C(=O)N[C@@H](Cc1ccc(O)cc1)C(=O)N[C@@H](CC(N)=O)C(=O)N[C@@H](Cc1c[nH]c2ccccc12)C(=O)N[C@@H](CC(C)C)C(=O)N[C@H](C(=O)N[C@@H](CCCNC(=N)N)C(=O)N[C@@H](CCC(N)=O)C(=O)N[C@@H](CCCNC(=N)N)C(=O)N[C@@H](Cc1ccc(O)cc1)C(N)=O)[C@@H](C)O)C(C)C
B3: Compound 26 (peptide)
peptide: Isovaleryl-APAK([Ahx-γGlu-C18 diacid])PEEDATPEELQRYYVSLRHYYNWLTRQRY-NH2
SMILES: CC(C)CC(=O)N[C@@H](C)C(=O)N1CCC[C@H]1C(=O)N[C@@H](C)C(=O)N[C@@H](CCCCNC(=O)CCCCCNC(=O)CC[C@H](NC(=O)CCCCCCCCCCCCCCCCC(=O)O)C(=O)O)C(=O)N1CCC[C@H]1C(=O)N[C@@H](CCC(=O)O)C(=O)N[C@@H](CCC(=O)O)C(=O)N[C@@H](CC(=O)O)C(=O)N[C@@H](C)C(=O)N[C@H](C(=O)N1CCC[C@H]1C(=O)N[C@@H](CCC(=O)O)C(=O)N[C@@H](CCC(=O)O)C(=O)N[C@@H](CC(C)C)C(=O)N[C@@H](CCC(N)=O)C(=O)N[C@@H](CCCNC(=N)N)C(=O)N[C@@H](Cc1ccc(O)cc1)C(=O)N[C@@H](Cc1ccc(O)cc1)C(=O)N[C@H](C(=O)N[C@@H](CO)C(=O)N[C@@H](CC(C)C)C(=O)N[C@@H](CCCNC(=N)N)C(=O)N[C@@H](Cc1c[nH]cn1)C(=O)N[C@@H](Cc1ccc(O)cc1)C(=O)N[C@@H](Cc1ccc(O)cc1)C(=O)N[C@@H](CC(N)=O)C(=O)N[C@@H](Cc1c[nH]c2ccccc12)C(=O)N[C@@H](CC(C)C)C(=O)N[C@H](C(=O)N[C@@H](CCCNC(=N)N)C(=O)N[C@@H](CCC(N)=O)C(=O)N[C@@H](CCCNC(=N)N)C(=O)N[C@@H](Cc1ccc(O)cc1)C(N)=O)[C@@H](C)O)C(C)C)[C@@H](C)O
B4: Compound 16 (peptide)
peptide: Isovaleryl-APEK([Ahx-γGlu-C18 diacid])PEEDATPEELQKYYVSLRHYYNWLTRQRY-NH2
SMILES: CC(C)CC(=O)N[C@@H](C)C(=O)N1CCC[C@H]1C(=O)N[C@@H](CCC(=O)O)C(=O)N[C@@H](CCCCNC(=O)CCCCCNC(=O)CC[C@H](NC(=O)CCCCCCCCCCCCCCCCC(=O)O)C(=O)O)C(=O)N1CCC[C@H]1C(=O)N[C@@H](CCC(=O)O)C(=O)N[C@@H](CCC(=O)O)C(=O)N[C@@H](CC(=O)O)C(=O)N[C@@H](C)C(=O)N[C@H](C(=O)N1CCC[C@H]1C(=O)N[C@@H](CCC(=O)O)C(=O)N[C@@H](CCC(=O)O)C(=O)N[C@@H](CC(C)C)C(=O)N[C@@H](CCC(N)=O)C(=O)N[C@@H](CCCCN)C(=O)N[C@@H](Cc1ccc(O)cc1)C(=O)N[C@@H](Cc1ccc(O)cc1)C(=O)N[C@H](C(=O)N[C@@H](CO)C(=O)N[C@@H](CC(C)C)C(=O)N[C@@H](CCCNC(=N)N)C(=O)N[C@@H](Cc1c[nH]cn1)C(=O)N[C@@H](Cc1ccc(O)cc1)C(=O)N[C@@H](Cc1ccc(O)cc1)C(=O)N[C@@H](CC(N)=O)C(=O)N[C@@H](Cc1c[nH]c2ccccc12)C(=O)N[C@@H](CC(C)C)C(=O)N[C@H](C(=O)N[C@@H](CCCNC(=N)N)C(=O)N[C@@H](CCC(N)=O)C(=O)N[C@@H](CCCNC(=N)N)C(=O)N[C@@H](Cc1ccc(O)cc1)C(N)=O)[C@@H](C)O)C(C)C)[C@@H](C)O
B5: Compound 23 (peptide)
peptide: Isovaleryl-APEK([Ahx-γGlu-C18 diacid])PEEEASPEELQRYYVSLRHYYNWLTRQRY-NH2
SMILES: CC(C)CC(=O)N[C@@H](C)C(=O)N1CCC[C@H]1C(=O)N[C@@H](CCC(=O)O)C(=O)N[C@@H](CCCCNC(=O)CCCCCNC(=O)CC[C@H](NC(=O)CCCCCCCCCCCCCCCCC(=O)O)C(=O)O)C(=O)N1CCC[C@H]1C(=O)N[C@@H](CCC(=O)O)C(=O)N[C@@H](CCC(=O)O)C(=O)N[C@@H](CCC(=O)O)C(=O)N[C@@H](C)C(=O)N[C@@H](CO)C(=O)N1CCC[C@H]1C(=O)N[C@@H](CCC(=O)O)C(=O)N[C@@H](CCC(=O)O)C(=O)N[C@@H](CC(C)C)C(=O)N[C@@H](CCC(N)=O)C(=O)N[C@@H](CCCNC(=N)N)C(=O)N[C@@H](Cc1ccc(O)cc1)C(=O)N[C@@H](Cc1ccc(O)cc1)C(=O)N[C@H](C(=O)N[C@@H](CO)C(=O)N[C@@H](CC(C)C)C(=O)N[C@@H](CCCNC(=N)N)C(=O)N[C@@H](Cc1c[nH]cn1)C(=O)N[C@@H](Cc1ccc(O)cc1)C(=O)N[C@@H](Cc1ccc(O)cc1)C(=O)N[C@@H](CC(N)=O)C(=O)N[C@@H](Cc1c[nH]c2ccccc12)C(=O)N[C@@H](CC(C)C)C(=O)N[C@H](C(=O)N[C@@H](CCCNC(=N)N)C(=O)N[C@@H](CCC(N)=O)C(=O)N[C@@H](CCCNC(=N)N)C(=O)N[C@@H](Cc1ccc(O)cc1)C(N)=O)[C@@H](C)O)C(C)C

How the values were obtained:
[1] = molecular target: T1, human NPY2 receptor; experiment: RLB: displacement of 125I-PYY(1-36) from hNPY2R membranes
[2] = molecular target: T2, human NPY5 receptor; experiment: cell-based or functional assay
[3] = molecular target: T1, human NPY2 receptor; experiment: cell-based or functional assay

Row | Binder | Ki [1] [nM] | EC50, HTRF cAMP Gi assay [2] [nM] | EC50, HTRF cAMP Gi assay [3] [nM]
1 | B1 | 1.28 | > 5000 | 0.086
2 | B2 | 3.98 | > 5000 | 0.14
3 | B3 | 5.64 | > 5000 | 0.108
4 | B4 | 2.81 | > 5000 | 0.31
5 | B5 | 12.6 | > 5000 | 0.181
